Patent US20190144565A1 (UCB, published 2019)

B1: IgE-Fc according to Seq. ID No. 108 (V224-K547) with the mutations N265Q & N371Q (other)
chain: VASRDFTPPTVKILQSSCDGGGHFPPTIQLLCLVSGYTPGTIQITWLEDGQVMDVDLSTASTTQEGELASTQSELTLSQKHWLSDRTYTCQVTYQGHTFEDSTKKCADSNPRGVSAYLSRPSPFDLFIRKSPTITCLVVDLAPSKGTVQLTWSRASGKPVNHSTRKEEKQRNGTLTVTSTLPVGTRDWIEGETYQCRVTHPHLPRALMRSTTKTSGPRAAPEVYAFATPEWPGSRDKRTLACLIQNFMPEDISVQWLHNEVQLPDARHSTTQPRKTKGSGFFVFSRLEVTRAEWEQKDEFICRAVHEAASPSQTVQRAVSVNPGK
notes: also called IgE-Fc (N265Q, N371Q); terbium labeled IgE-Fc
B2: sFcεRIα-IgG4-Fc fusion protein (α-γ) (Fc fusion, UniProt P12319 26-205, looked up)
chain: VPQKPKVSLNPPWNRIFKGENVTLTCNGNNFFEVSSTKWFHNGSLSEETNSSLNIVNAKFEDSGEYKCQHQQVNESEPVYLEVFSDWLLLQASAEVVMEGQPLFLRCHGWRNWDVYKVIYYKDGEALKYWYENHNISITNATVEDSGTYYCTGKVWQLDYESEPLNITVIKAPREKYWLQ
notes: extracellular domain; also called αγ-fusion protein; Alexa Fluor 647 labeled sFcεRIα-IgG4-Fc; not shown: IgG4 Fc

Experiments:
[1] = target: T1, sFcεRIα, the extracellular portion of the alpha chain of the human high affinity IgE receptor (human, UniProt P12319 26-205); assay: SPR; IgE-Fc captured on immobilised sFcεRIα
T1 construct: extracellular domain; also called sFcERIa; Alexa488 labelled sFcεRIα
T1 sequence (looked up): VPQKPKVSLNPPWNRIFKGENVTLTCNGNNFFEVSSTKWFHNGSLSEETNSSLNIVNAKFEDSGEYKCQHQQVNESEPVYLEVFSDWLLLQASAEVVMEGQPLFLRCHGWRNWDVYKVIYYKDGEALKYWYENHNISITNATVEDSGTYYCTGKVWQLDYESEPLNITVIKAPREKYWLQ

[2] = target: B2; assay: TR-FRET; labelled αγ-fusion protein titrated on labelled IgE-Fc, no omalizumab Fab3
[3] = target: B1; assay: as above

## B1
[1]
  binding result: binds
[2]
  binding result: binds

## B2
[3]
  EC50 (read off the curve): ~1 nM
